{
  "source": "paper PMC7175333",
  "key": {"[1]": {"biological_target": "DLnano_LS_GT8 (DNA‐launched lumazine synthase nanoparticle decorated with eOD‐GT8, produced in vivo) (Aquifex aeolicus)", "assay": "native gel or EMSA; pseudo-native PAGE (3-8% Tris-acetate gel, LDS buffer at room temperature, no boiling) of mouse muscle homogenates 4 d.p.i., blotted with VRC01; SEC-purified recombinant standards alongside"}, "[2]": {"biological_target": "LS_HA_NC99 (lumazine synthase nanoparticle displaying the receptor binding domain of the head of influenza hemagglutinin, H1N1 A/New Caledonia/20/1999) (Aquifex aeolicus | influenza A virus H1N1 A/New Caledonia/20/1999)", "assay": "SEC + SEC-MALS + other: negative stain electron microscopy"}},
  "data": [
    {"substance": "DLnano_LS_GT8 (DNA‐launched lumazine synthase nanoparticle decorated with eOD‐GT8, produced in vivo)", "values": [
      {"measurement": "stoichiometry N", "setting": "[1]", "value": 60}
    ]},
    {"substance": "LS_HA_NC99 (lumazine synthase nanoparticle displaying the receptor binding domain of the head of influenza hemagglutinin, H1N1 A/New Caledonia/20/1999)", "values": [
      {"measurement": "stoichiometry N", "setting": "[2]", "value": 60}
    ]}
  ]
}
